Assay [1] has as its target subtilisin-treated unmodified human microtubules missing their β-tubulin tails (human (endogenous in tsA201), UniProt P68363 1-451; P07437 1-444). In words: TIRF microscopy binding assay.
Assay [2] deals with microtubules assembled from porcine brain tubulin (porcine, UniProt P02550 1-451; P02554 1-445). Briefly: co-sedimentation.
Chain of microtubules assembled from porcine brain tubulin (P02550 whole entry, chain 1 of 2): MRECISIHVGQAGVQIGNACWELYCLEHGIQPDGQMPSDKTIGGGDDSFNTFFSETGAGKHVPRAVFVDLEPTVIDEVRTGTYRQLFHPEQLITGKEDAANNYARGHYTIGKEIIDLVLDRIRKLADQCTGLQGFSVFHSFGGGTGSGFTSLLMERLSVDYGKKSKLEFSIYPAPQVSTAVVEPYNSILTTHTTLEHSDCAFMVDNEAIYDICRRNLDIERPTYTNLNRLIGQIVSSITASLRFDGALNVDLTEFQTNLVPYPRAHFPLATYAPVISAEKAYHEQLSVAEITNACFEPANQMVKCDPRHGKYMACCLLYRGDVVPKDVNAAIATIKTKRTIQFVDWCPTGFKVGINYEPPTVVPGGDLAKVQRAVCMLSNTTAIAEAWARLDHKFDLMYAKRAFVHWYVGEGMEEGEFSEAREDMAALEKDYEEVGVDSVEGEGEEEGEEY
Chain of microtubules assembled from porcine brain tubulin (P02554 whole entry, chain 2 of 2): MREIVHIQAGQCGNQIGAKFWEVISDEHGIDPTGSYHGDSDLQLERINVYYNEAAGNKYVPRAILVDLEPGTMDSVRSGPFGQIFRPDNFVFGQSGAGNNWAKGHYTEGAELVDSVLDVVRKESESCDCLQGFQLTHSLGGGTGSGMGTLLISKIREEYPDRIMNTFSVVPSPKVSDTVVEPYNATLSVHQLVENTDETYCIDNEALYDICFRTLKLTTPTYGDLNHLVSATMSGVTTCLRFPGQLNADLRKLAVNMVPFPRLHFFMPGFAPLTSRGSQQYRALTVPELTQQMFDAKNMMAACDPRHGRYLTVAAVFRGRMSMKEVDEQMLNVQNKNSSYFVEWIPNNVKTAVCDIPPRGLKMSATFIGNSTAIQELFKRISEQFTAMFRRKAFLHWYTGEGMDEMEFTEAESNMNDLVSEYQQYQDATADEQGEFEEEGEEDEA

Chain of subtilisin-treated unmodified human microtubules missing their β-tubulin tails (P68363 whole entry, chain 1 of 2): as the sequence (P02550 whole entry, chain 1 of 2) above, with S136L, G232S, A265I, T340S, E358Q counted along it
Chain of subtilisin-treated unmodified human microtubules missing their β-tubulin tails (P07437 1-427, chain 2 of 2): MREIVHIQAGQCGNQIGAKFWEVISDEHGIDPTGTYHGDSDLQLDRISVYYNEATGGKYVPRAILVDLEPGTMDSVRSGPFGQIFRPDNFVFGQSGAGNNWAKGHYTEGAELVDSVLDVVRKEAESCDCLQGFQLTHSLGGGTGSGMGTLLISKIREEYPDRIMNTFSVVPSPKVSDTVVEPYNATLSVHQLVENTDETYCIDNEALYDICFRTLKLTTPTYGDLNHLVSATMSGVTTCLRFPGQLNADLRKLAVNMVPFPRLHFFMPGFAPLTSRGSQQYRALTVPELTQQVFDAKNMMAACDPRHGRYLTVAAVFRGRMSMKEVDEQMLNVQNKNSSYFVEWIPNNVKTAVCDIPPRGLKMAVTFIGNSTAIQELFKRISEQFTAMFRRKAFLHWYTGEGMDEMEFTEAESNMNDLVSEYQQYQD

B1: Atto488-labeled TTLL6 (enzyme, Mus musculus, UniProt A4Q9E8 51-502, looked up)
chain: GKKKRKKKRLVINLSNCRYDSVRRAAQQYGLREAGDNDDWTLYWTDYSVSLERVMEMKSYQKINHFPGMSEICRKDLLARNMSRMLKLFPKDFHFFPRTWCLPADWGDLQTYSRTRKNKTYICKPDSGCQGRGIFITRSVKEIKPGEDMICQLYISKPFIIDGFKFDLRVYVLVTSCDPLRVFVYNEGLARFATTSYSHPNLDNLDEICMHLTNYSINKHSSNFVQDAFSGSKRKLSTFNSYMKTHGYDVEQIWRGIEDVIIKTLISAHPVIKHNYHTCFPSHTLNSACFEILGFDILLDRKLKPWLLEVNHSPSFSTDSKLDKEVKDSLLYDALVLINLGNCDKKKVLEEERQRGRFLQQCPNREIRLEEVKGFQAMRLQKTEEYEKKNCGGFRLIYPGLNLEKYDKFFQDNSSLFQNTVASRARELYARQLIQELRQKQEKKVFLKKARK
modifications: Atto488 on the N-terminus, through the synthetic peptide NH2-(Atto488)-LPETGGGG ligated with sortase
B1: the “fold decrease in recruitment against MTs with intact β-tails” value in assay [1] was about 18 fold.

On to FQDNSSLFQNTVASRARELYARQLIQELRQKQEKKVFLKKARK (domain or fragment, Mus musculus, UniProt A4Q9E8 460-502, looked up) [TTLL6 MTBH1-2 (460–502)], for which binding in assay [2] was characterised by a dissociation constant (Kd) of 3.7 µM.

Source of the values: article PMC11529724 (Nature chemical biology, 2024).
